pKa data for 1 substance are collected here from paper PMC10460364.

One series concerns Cys42. In words: UV-vis. Conditions: 10 °C; poly-buffer: 10 mM sodium acetate, 10 mM sodium phosphate, 10 mM sodium borate, 10 mM sodium citrate, pH 9.4, titrated with 100 mM HCl; Reduced protein (20 µM), referenced to CHP-oxidised protein; folded.
The next series deals with Cys45. In words: UV-vis. Conditions: 10 °C; poly-buffer: 10 mM sodium acetate, 10 mM sodium phosphate, 10 mM sodium borate, 10 mM sodium citrate, pH 9.4, titrated with 100 mM HCl; Reduced protein (20 µM), referenced to CHP-oxidised protein; folded.

For the substance “Alkyl hydroperoxide reductase CgAhp (NCgl0877), AhpD-like disulfide oxidoreductase (Corynebacterium glutamicum (strain RES167, derivative of ATCC 13032))”, the pKa result in the series with Cys42 is reported as “lower than 6”; with Cys45 it was 8.39.

A word on the pKa: it is the pH at which an ionisable group is half protonated.
